# Laboratory results: patent US20240352105A1, “COMPOSITIONS AND METHODS FOR NEUTRALIZING ANTIGENS” (PACAGEN, INC, priority 2023, published 2024)
# Several values for one entry are separate records, joined by “and”; a condition that tells them apart may be missing. Equal entries are not always repeated.
# Assays:
# [1] = molecular target: Can f2-sumo-His (dog (Canis familiaris)) (UniProt O18874); assay: serum ELISA, 1:4k, Alpaca 2 block
# [2] = molecular target: recombinant His-tagged Can f2 (dog (Canis familiaris)) (UniProt O18874); assay: serum ELISA, 1:4k, Alpaca 2 block
# Chain of recombinant His-tagged Can f2 (dog (Canis familiaris)) (O18874 19-180 limits assumed): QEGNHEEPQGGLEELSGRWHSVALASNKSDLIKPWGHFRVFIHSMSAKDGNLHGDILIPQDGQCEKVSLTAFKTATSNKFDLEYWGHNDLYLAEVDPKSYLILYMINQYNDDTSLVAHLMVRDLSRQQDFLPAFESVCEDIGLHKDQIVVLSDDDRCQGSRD
# [3] = molecular target: recombinant His-tagged Can f1 (dog (Canis familiaris)) (UniProt O18873); assay: serum ELISA, 1:4k, Alpaca 2 block
# Chain of recombinant His-tagged Can f1 (dog (Canis familiaris)) (O18873 19-174 limits assumed): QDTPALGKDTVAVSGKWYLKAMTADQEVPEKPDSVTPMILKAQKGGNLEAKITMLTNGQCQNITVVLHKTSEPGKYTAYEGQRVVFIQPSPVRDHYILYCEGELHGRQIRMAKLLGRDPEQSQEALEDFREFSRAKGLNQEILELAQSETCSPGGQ
# [4] = molecular target: T1, recombinant His-tagged Der p2 (dust mite, UniProt P49278 18-146); assay: serum ELISA, 1:4k, Alpaca 2 block
# T1 construct: also called Der p2-His; Der p2-HIS; not shown: His tag
# T1 sequence (looked up): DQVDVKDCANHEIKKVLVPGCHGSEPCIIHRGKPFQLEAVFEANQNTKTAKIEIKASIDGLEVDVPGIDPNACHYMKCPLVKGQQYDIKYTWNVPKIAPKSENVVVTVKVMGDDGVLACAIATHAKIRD
# [5] = molecular target: Can f2-sumo-His (dog (Canis familiaris)) (UniProt O18874); assay: serum ELISA, 1:4k, Alpaca 1 block
# [6] = molecular target: recombinant His-tagged Can f2 (dog (Canis familiaris)) (UniProt O18874); assay: serum ELISA, 1:4k, Alpaca 1 block
# [7] = molecular target: recombinant His-tagged Can f1 (dog (Canis familiaris)) (UniProt O18873); assay: serum ELISA, 1:4k, Alpaca 1 block
# [8] = molecular target: T1, recombinant His-tagged Der p2; assay: serum ELISA, 1:4k, Alpaca 1 block
# [9] = molecular target: Can f2-sumo-His (dog (Canis familiaris)) (UniProt O18874); assay: serum ELISA, 1:8K, Alpaca 1 block
# [10] = molecular target: recombinant His-tagged Can f2 (dog (Canis familiaris)) (UniProt O18874); assay: serum ELISA, 1:8K, Alpaca 1 block
# [11] = molecular target: recombinant His-tagged Can f1 (dog (Canis familiaris)) (UniProt O18873); assay: serum ELISA, 1:8K, Alpaca 1 block
# [12] = molecular target: T1, recombinant His-tagged Der p2; assay: serum ELISA, 1:8K, Alpaca 1 block
# [13] = molecular target: Can f2-sumo-His (dog (Canis familiaris)) (UniProt O18874); assay: serum ELISA, 1:2K, Alpaca 1 block
# [14] = molecular target: recombinant His-tagged Can f2 (dog (Canis familiaris)) (UniProt O18874); assay: serum ELISA, 1:2K, Alpaca 1 block
# [15] = molecular target: T1, recombinant His-tagged Der p2; assay: serum ELISA, 1:2K, Alpaca 1 block
# [16] = molecular target: Can f2-sumo-His (dog (Canis familiaris)) (UniProt O18874); assay: serum ELISA, 1:1K, Alpaca 1 block
# [17] = molecular target: recombinant His-tagged Can f2 (dog (Canis familiaris)) (UniProt O18874); assay: serum ELISA, 1:1K, Alpaca 1 block
# [18] = molecular target: recombinant His-tagged Can f1 (dog (Canis familiaris)) (UniProt O18873); assay: serum ELISA, 1:1K, Alpaca 1 block
# [19] = molecular target: T1, recombinant His-tagged Der p2; assay: serum ELISA, 1:1K, Alpaca 1 block
# [20] = molecular target: recombinant His-tagged Can f2 (dog (Canis familiaris)) (UniProt O18874); assay: serum ELISA, 1:32k, Alpaca 1 block
# [21] = molecular target: T1, recombinant His-tagged Der p2; assay: serum ELISA, 1:32k, Alpaca 1 block
# [22] = molecular target: Can f2-sumo-His (dog (Canis familiaris)) (UniProt O18874); assay: serum ELISA, 1:64K, Alpaca 1 block
# [23] = molecular target: recombinant His-tagged Can f2 (dog (Canis familiaris)) (UniProt O18874); assay: serum ELISA, 1:64K, Alpaca 1 block
# [24] = molecular target: recombinant His-tagged Can f1 (dog (Canis familiaris)) (UniProt O18873); assay: serum ELISA, 1:64K, Alpaca 1 block
# [25] = molecular target: T1, recombinant His-tagged Der p2; assay: serum ELISA, 1:64K, Alpaca 1 block
# [26] = molecular target: Can f2-sumo-His (dog (Canis familiaris)) (UniProt O18874); assay: serum ELISA, 1:16K, Alpaca 1 block
# [27] = molecular target: recombinant His-tagged Can f2 (dog (Canis familiaris)) (UniProt O18874); assay: serum ELISA, 1:16K, Alpaca 1 block
# [28] = molecular target: recombinant His-tagged Can f1 (dog (Canis familiaris)) (UniProt O18873); assay: serum ELISA, 1:16K, Alpaca 1 block
# [29] = molecular target: T1, recombinant His-tagged Der p2; assay: serum ELISA, 1:16K, Alpaca 1 block
# [30] = molecular target: Can f2-sumo-His (dog (Canis familiaris)) (UniProt O18874); assay: serum ELISA, 1:32k, Alpaca 2 block
# [31] = molecular target: recombinant His-tagged Can f2 (dog (Canis familiaris)) (UniProt O18874); assay: serum ELISA, 1:32k, Alpaca 2 block
# [32] = molecular target: recombinant His-tagged Can f1 (dog (Canis familiaris)) (UniProt O18873); assay: serum ELISA, 1:32k, Alpaca 2 block
# [33] = molecular target: T1, recombinant His-tagged Der p2; assay: serum ELISA, 1:32k, Alpaca 2 block
# [34] = molecular target: Can f2-sumo-His (dog (Canis familiaris)) (UniProt O18874); assay: serum ELISA, 1:16K, Alpaca 2 block
# [35] = molecular target: recombinant His-tagged Can f2 (dog (Canis familiaris)) (UniProt O18874); assay: serum ELISA, 1:16K, Alpaca 2 block
# [36] = molecular target: recombinant His-tagged Can f1 (dog (Canis familiaris)) (UniProt O18873); assay: serum ELISA, 1:16K, Alpaca 2 block
# [37] = molecular target: T1, recombinant His-tagged Der p2; assay: serum ELISA, 1:16K, Alpaca 2 block
# Chain of Can f2-sumo-His (dog (Canis familiaris)) (O18874 19-180): as the sequence (O18874 19-180 limits assumed) above
substance,measurement,setting,value
Negative serum taken from naïve alpacas,OD at 450 nm,[1],0.09 OD and 0.081 OD
same,OD at 450 nm,[2],0.108 OD and 0.101 OD
same,OD at 450 nm,[3],0.122 OD
same,OD at 450 nm,[4],0.113 OD
same,OD at 450 nm,[5],0.071 OD and 0.072 OD
same,OD at 450 nm,[6],0.077 OD and 0.075 OD
same,OD at 450 nm,[7],0.137 OD and 0.147 OD
same,OD at 450 nm,[8],0.119 OD and 0.116 OD
same,OD at 450 nm,[9],0.072 OD
same,OD at 450 nm,[10],0.076 OD
same,OD at 450 nm,[11],0.116 OD and 0.117 OD
same,OD at 450 nm,[12],0.104 OD and 0.099 OD
same,OD at 450 nm,[13],0.088 OD and 0.085 OD
same,OD at 450 nm,[14],0.093 OD and 0.099 OD
same,OD at 450 nm,[15],0.149 OD and 0.154 OD
same,OD at 450 nm,[16],0.119 OD and 0.111 OD
same,OD at 450 nm,[17],0.128 OD and 0.133 OD
same,OD at 450 nm,[18],0.294 OD and 0.342 OD
same,OD at 450 nm,[19],0.246 OD and 0.255 OD
same,OD at 450 nm,[20],0.069 OD and 0.062 OD
same,OD at 450 nm,[21],0.099 OD and 0.081 OD
same,OD at 450 nm,[22],0.057 OD and 0.058 OD
same,OD at 450 nm,[23],0.064 OD and 0.069 OD
same,OD at 450 nm,[24],0.103 OD
same,OD at 450 nm,[25],0.085 OD and 0.081 OD
same,OD at 450 nm,[26],0.071 OD
same,OD at 450 nm,[27],0.075 OD and 0.076 OD
same,OD at 450 nm,[28],0.101 OD and 0.11 OD
same,OD at 450 nm,[29],0.099 OD and 0.093 OD
same,OD at 450 nm,[30],0.071 OD and 0.061 OD
same,OD at 450 nm,[31],0.075 OD and 0.068 OD
same,OD at 450 nm,[32],0.091 OD and 0.093 OD
same,OD at 450 nm,[33],0.082 OD
same,OD at 450 nm,[34],0.074 OD and 0.081 OD
same,OD at 450 nm,[35],0.08 OD and 0.075 OD
same,OD at 450 nm,[36],0.101 OD and 0.098 OD
same,OD at 450 nm,[37],0.091 OD and 0.089 OD
